Source: PMC5646864

Assays:
Cys61 = Cys61 (UniProt position 61, KEIAGCENRVW); details: not stated (reduced thiol implied; discussed for free CsdE); cited from earlier work
[1] = target: T1, Escherichia coli CsdE (Escherichia coli), P0AGF2; assay: crystal structure; native CsdE at 40 mg/ml in 10 mM Tris-HCl pH 8, 2 mM 2-mercaptoethanol; crystallised in 0.1 M sodium citrate pH 6.5, 20% (w/v) PEG-MME 2000 at 297 K; two monomers in the asymmetric unit joined by a Cys61-Cys61 disulfide bridge; phased by Se-SAD on SeMet crystals; details: remark: other sources report otherwise
T1 chain: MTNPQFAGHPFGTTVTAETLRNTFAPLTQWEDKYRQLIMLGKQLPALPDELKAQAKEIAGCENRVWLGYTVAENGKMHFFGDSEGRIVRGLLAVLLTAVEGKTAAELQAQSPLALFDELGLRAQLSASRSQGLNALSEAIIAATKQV

Molecule: Sulfur acceptor protein CsdE (YgdK) (Escherichia coli)
- pKa (Cys61): 6.5

B1: Escherichia coli CsdE, P0AGF2 1-147 (natural protein)
chain: T1 chain
- stoichiometry N [1]: 2
